Data on 5 substances can be found in US20130052130A1.

One assay concerns the target TAG-72. The assay can be described thus: competition assay, single aliquots; antigen and competitor not stated.
The next assay concerns the target BSM. Briefly: competition ELISA, BSM-coated plate; competitor is mCC49 at 0.033 ug/mL. In general terms: In an ELISA, binding on a coated surface is turned into a signal by an enzyme label.

On to CC49 Fab′-NEM, for which the Relative Affinity Constant (Ka) (relative to Fab′-NEM defined as 1.0) in the assay with TAG-72 was 1. Also, in the assay with BSM, the I1/2 fold relative to F(ab′)2 (fold (× the I1/2 of F(ab′)2)) came to 40.
In the assay with TAG-72, CC49 Fab′-dPEG12-Tris(dPEG24 acid)3 registered a Relative Affinity Constant (Ka) (relative to Fab′-NEM defined as 1.0) of 1. Also, the I1/2 fold relative to F(ab′)2 (fold (× the I1/2 of F(ab′)2)) with BSM is 40.
Take “CC49 Fab′-dPEG12-Tris(dPEG12-Tris(m-dPEG11)3)3”: the Relative Affinity Constant (Ka) (relative to Fab′-NEM defined as 1.0) with TAG-72 turned out to be 0.4.
Same read-out and setting: as for CC49 Fab′-dPEG12-Tris(m-dPEG24)3, the figure is 0.3; as for CC49 Fab′-dPEG12-Tris(dPEG12 acid)3, 0.3.
